From patent US20240270846A1 (published 2024)
Where no end group is shown, it is not given here.

T1: biotin-labeled cynomolgus monkey CD137 fused to human IgG1 Fc fragment (cynomolgus monkey, UniProt Q07011 24-186 (human entry), limits assumed, biotin-labeled)
T1 construct: also called cyno CD137-Fc; not shown: human IgG1 Fc fragment
T1 chain: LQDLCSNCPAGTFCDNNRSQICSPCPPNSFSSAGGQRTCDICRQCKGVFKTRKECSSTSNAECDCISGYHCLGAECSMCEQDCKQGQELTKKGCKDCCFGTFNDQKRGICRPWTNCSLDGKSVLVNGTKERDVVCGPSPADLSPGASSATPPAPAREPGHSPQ

T2: biotin-labeled CD3 epsilon peptide antigen (human, also: biotin-labeled, position not given here)
T2 construct: Peptide of CD3 epsilon; also called CD3 peptide
T2 peptide: QDGNEEMGGITQTPY


How the values were obtained:
[1] = biological target: T1, biotin-labeled cynomolgus monkey CD137 …; experiment: bead ELISA; RLU on cyno CD137-Fc divided by RLU on human Fc
[2] = biological target: T1, biotin-labeled cynomolgus monkey CD137 …; experiment: bead ELISA (chemiluminescence), purified IgG on biotin labeled cyno CD137-Fc on streptavidin beads
[3] = biological target: T3, biotin-labeled human CD137 fused to human IgG1 Fc fragment (human, biotin-labeled); experiment: bead ELISA; RLU on human CD137-Fc divided by RLU on human Fc
T3 construct: also called human CD137-Fc; biotin-human CD137-Fc

[4] = biological target: T3, biotin-labeled human CD137 fused to …; experiment: bead ELISA (chemiluminescence), purified IgG on biotin labeled human CD137-Fc on streptavidin beads
[5] = biological target: T4, biotin-labeled human CD137 fused to human IgG1 Fc fragment (human CD137-Fc) (human, biotin-labeled); experiment: competitive bead ELISA, biotin-human CD137-Fc on beads, 100 ng IgG, control competitor free human Fc 62.5 pmol
T4 construct: also called biotin-human CD137-Fc

[6] = biological target: T2, biotin-labeled CD3 epsilon peptide …; experiment: bead ELISA, biotin-CD3 epsilon peptide on streptavidin beads, 100 ng IgG
[7] = biological target: T4, biotin-labeled human CD137 fused to …; experiment: competitive bead ELISA, biotin-human CD137-Fc on beads, 100 ng IgG, competitor free CD3 epsilon peptide 62.5 pmol
[8] = biological target: T4, biotin-labeled human CD137 fused to …; experiment: competitive bead ELISA, biotin-human CD137-Fc on beads; free CD3e 62.5 pmol against free Fc 62.5 pmol
[9] = biological target: T5, CD3 epsilon homodimer protein (UniProt P07766 23-126); experiment: SPR, Biacore T200, CD3 epsilon homodimer immobilized on CM4, one-arm antibody as analyte, 25 degrees C
T5 construct: also called CD3 (CD3 epsilon)

Binder | S/N ratio cyno CD137-Fc/Fc [1] | RLU [2] [RLU] | S/N ratio human CD137-Fc/Fc [3] | RLU [4] [RLU] | ELISA signal with Free Fc 62.5 pmol [5] | RLU, CD3 peptide [6] [RLU] | S/N ratio CD3 peptide/non coating [6] | ELISA signal with Free CD3e 62.5 pmol [7] | Signal decrease [8] [%] | ratio of amounts bound (Z = Y/X) against the unaltered GLS3000 antibody [9]
DXDU01_3#094 (antibody, human IgG1, V domains shown, IgG: VH joined to human IgG1 CH1-Fc; also called dBBDu121) VH: QVQLVESGGGLVQPGRSLRLSCAASGFTFSNAWMHWVRQAPGKGLEWVAQIKDKGNAYAAYYAPSVKGRFTISRDDSKNSIYLQMNSLKTEDTAVYYCHYVHYASAAGGLPGFGVDAWGQGTTVTVSS VL: DIVMTQSPLSLPVTPGEPASISCRSSQSLVHSNRNTYLHWYQQKPGQAPRLLIYKVSNRFSGVPDRFSGSGSGTDFTLKISRVEAEDVGVYYCGQGTQVPYTFGQGTKLEIK | 8.09 | 19100 | 10.2 | 24200 | – | – | – | – | – | –
DADU01_3#001 (antibody, human IgG1, V domains shown, IgG: VH joined to human IgG1 CH1-Fc; also called dBBDu_126; dBBDu126) VH: QVQLVESGGGLVQPGRSLRLSCAASGFTFSIAWMHWVRQAPGKGLEWVAQIKDRVNAYEAYYAPSVKGRFTISRDDSKNSIYLQMNSLKTEDTAVYYCRYVHYASYYDLLGYGGVDAWGQGTTVTVSS VL: DIVMTQSPLSLPVTPGEPASISCRSSQSLVHSNRNTYLHWYQQKPGQAPRLLIYKVSNRFSGVPDRFSGSGSGTDFTLKISRVEAEDVGVYYCGQGTQVPYTFGQGTKLEIK | 0.687 | 1210 | 54.1 | 95300 | – | – | – | – | – | –
DADU01_3#002 (antibody, human IgG1, V domains shown, also called dBBDu124) VH: QVQLVESGGGLVQPGRSLRLSCAASGFTFSNAWMHWVRQAPGKGLEWVAQIKDKQNLYNAYYAESVKGRFTISRDDSKNSIYLQMNSLKTEDTAVYYCHYVHYASASTVLPAFGVDAWGQGTTVTVSS VL: DIVMTQSPLSLPVTPGEPASISCRSSQSLVHSNRNTYLHWYQQKPGQAPRLLIYKVSNRFSGVPDRFSGSGSGTDFTLKISRVEAEDVGVYYCGQGTQVPYTFGQGTKLEIKR | – | – | – | – | 155000 | 174000 | 156 | 9970 | 93.6 | –
DADU01_3#018 (antibody, human IgG1, V domains shown, also called dBBDu123) VH: QVQLVESGGGLVQPGRSLRLSCAASGFTFSNAWMHWVRQAPGKGLEWVAQIKDRANSYNAYYAPSVKGRFTISRDDSKNSIYLQMNSLKTEDTAVYYCHYVHYSAASTLLPSFGVDAWGQGTTVTVSS VL: DIVMTQSPLSLPVTPGEPASISCRSSQSLVHSNRNTYLHWYQQKPGQAPRLLIYKVSNRFSGVPDRFSGSGSGTDFTLKISRVEAEDVGVYYCGQGTQVPYTFGQGTKLEIKR | – | – | – | – | 117000 | 182000 | 149 | 9020 | 92.3 | –
DXDU01_3#094 (antibody, human IgG1, V domains shown, also called dBBDu121) VH: QVQLVESGGGLVQPGRSLRLSCAASGFTFSNAWMHWVRQAPGKGLEWVAQIKDKGNAYAAYYAPSVKGRFTISRDDSKNSIYLQMNSLKTEDTAVYYCHYVHYASAAGGLPGFGVDAWGQGTTVTVSS VL: DIVMTQSPLSLPVTPGEPASISCRSSQSLVHSNRNTYLHWYQQKPGQAPRLLIYKVSNRFSGVPDRFSGSGSGTDFTLKISRVEAEDVGVYYCGQGTQVPYTFGQGTKLEIKR | – | – | – | – | 108000 | 165000 | 141 | 9660 | 91.1 | –
DXDU01_3#051 (antibody, human IgG1, V domains shown, also called dBBDu127) VH: QVQLVESGGGLVQPGRSLRLSCAASGFTFSNAWMHWVRQAPGKGLEWVAQIKDRGQQYNAYYAPSVKGRFTISRDDSKNSIYLQMNSLKTEDTAVYYCHYVHYASASSVLPGYGVDAWGQGTTVTVSS VL: DIVMTQSPLSLPVTPGEPASISCRSSQSLVHSNRNTYLHWYQQKPGQAPRLLIYKVSNRFSGVPDRFSGSGSGTDFTLKISRVEAEDVGVYYCGQGTQVPYTFGQGTKLEIKR | – | – | – | – | 128000 | 169000 | 145 | 10800 | 91.6 | –
DXDU01_3#019 (antibody, human IgG1, V domains shown, also called dBBDu125) VH: QVQLVESGGGLVQPGRSLRLSCAASGFTFSIAWMHWVRQAPGKGLEWVAQIKDKVNGYTAYYAESVKGRFTISRDDSKNSIYLQMNSLKTEDTAVYYCRYVHYAAYYDVLGYGGVDAWGQGTTVTVSS VL: DIVMTQSPLSLPVTPGEPASISCRSSQSLVHSNRNTYLHWYQQKPGQAPRLLIYKVSNRFSGVPDRFSGSGSGTDFTLKISRVEAEDVGVYYCGQGTQVPYTFGQGTKLEIKR | – | – | – | – | 172000 | 191000 | 161 | 12800 | 92.5 | –
L chain one-amino acid altered form of GLS3000, G to Y at Kabat position 89 (one-arm antibody: CE115HA000-pE22Hh / Kn010G3 / altered GLS3000-kappa) (antibody, human IgG1, kappa, L234A L235A, N297A, name in Kabat numbering, One-arm antibody (IgG lacking one Fab); also called GLS3000 G89Y) heavy: QVQLVESGGGVVQPGRSLRLSCAASGFTFSNAWMHWVRQAPGKGLEWVAQIKAKSNNYATYYAESVKGRFTISRDDSKNSLYLQMNSLKTEDTAVYYCRYVHYGAYYGVDAWGQGTTVTVSSASTKGPSVFPLAPSSKSTSGGTAALGCLVKDYFPEPVTVSWNSGALTSGVHTFPAVLQSSGLYSLSSVVTVPSSSLGTQTYICNVNHKPSNTKVDKKVEPKSCDKTHTCPPCPAPEAAGGPSVFLFPPKPKDTLMISRTPEVTCVVVDVSHEDPEVKFNWYVDGVEVHNAKTKPREEQYASTYRVVSVLTVLHQDWLNGKEYKCKVSNKALPAPIEKTISKAKGQPREPQVYTLPPSRCELTKNQVSLSCAVKGFYPSDIAVEWESNGQPENNYKTTPPVLDSDGSFFLVSKLTVDKSRWQQGNVFSCSVMHEALHNHYTQKSLSLSPDYKDDDDK EPKSSDKTHTCPPCPAPELLGGPSVFLFPPKPKDTLMISRTPEVTCVVVDVSHEDPEVKFNWYVDGVEVHNAKTKPREEQYNSTYRVVSVLTVLHQDWLNGKEYKCKVSNKALPAPIEKTISKAKGQPREPQVCTLPPSRDELTKNQVSLWCLVKGFYPSDIAVEWESNGQPENNYKTTPPVLDSDGSFFLYSKLTVDKSRWQQGNVFSCSVMHEALHNRYTQKSLSLSP light: DIVMTQSPLSLPVTPGEPASISCRSSQSLVHSNRNTYLHWYQQKPGQAPRLLIYKVSNRFSGVPDRFSGSGSGTDFTLKISRVEAEDVGVYYCYQGTQVPYTFGQGTKLEIKRTVAAPSVFIFPPSDEQLKSGTASVVCLLNNFYPREAKVQWKVDNALQSGNSQESVTEQDSKDSTYSLSSTLTLSKADYEKHKVYACEVTHQGLSSPVTKSFNRGEC | – | – | – | – | – | – | – | – | – | 1.19
anti-human CD137 antibody described in WO2005/035584A1 (abbreviated as B) (antibody, V domains shown, Control antibody; also called control anti-CD137 antibody) VH: QVQLQQWGAGLLKPSETLSLTCAVYGGSFSGYYWSWIRQSPEKGLEWIGEINHGGYVTYNPSLESRVTISVDTSKNQFSLKLSSVTAADTAVYYCARDYGPGNYDWYFDLWGRGTLVTVSS VL: EIVLTQSPATLSLSPGERATLSCRASQSVSSYLAWYQQKPGQAPRLLIYDASNRATGIPARFSGSGSGTDFTLTISSLEPEDFAVYYCQQRSNWPPALTFGGGTKVEIK | – | – | – | – | 184000 | – | – | 183000 | 0.94 | –
DADU01_3#001 (antibody, human IgG1, V domains shown, also called dBBDu_126; dBBDu126) VH: QVQLVESGGGLVQPGRSLRLSCAASGFTFSIAWMHWVRQAPGKGLEWVAQIKDRVNAYEAYYAPSVKGRFTISRDDSKNSIYLQMNSLKTEDTAVYYCRYVHYASYYDLLGYGGVDAWGQGTTVTVSS VL: DIVMTQSPLSLPVTPGEPASISCRSSQSLVHSNRNTYLHWYQQKPGQAPRLLIYKVSNRFSGVPDRFSGSGSGTDFTLKISRVEAEDVGVYYCGQGTQVPYTFGQGTKLEIKR | – | – | – | – | 81000 | 198000 | 146 | 15100 | 81.3 | –
